Earlier results on two substances are cited in PMC12582428.

Where two headings read alike, the source gives them in different places.

The target of data set [1] is Neuropeptide Y (Homo sapiens) (UniProt P01303).
Data set [2] has the same target. The source holds these as a separate data set.

Sequence of Neuropeptide Y receptor Y1 (P25929 whole entry): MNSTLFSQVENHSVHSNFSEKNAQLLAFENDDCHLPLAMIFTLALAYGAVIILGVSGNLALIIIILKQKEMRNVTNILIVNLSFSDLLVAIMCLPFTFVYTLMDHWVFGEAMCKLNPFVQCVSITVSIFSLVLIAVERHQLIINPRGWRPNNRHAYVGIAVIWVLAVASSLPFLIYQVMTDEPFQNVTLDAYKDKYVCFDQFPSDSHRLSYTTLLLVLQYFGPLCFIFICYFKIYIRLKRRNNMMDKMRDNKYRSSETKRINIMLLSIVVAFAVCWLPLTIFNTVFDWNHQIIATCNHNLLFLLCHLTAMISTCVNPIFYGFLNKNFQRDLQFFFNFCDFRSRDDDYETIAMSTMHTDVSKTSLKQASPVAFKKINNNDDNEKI
Sequence of Neuropeptide Y receptor Y2 (P49146 whole entry): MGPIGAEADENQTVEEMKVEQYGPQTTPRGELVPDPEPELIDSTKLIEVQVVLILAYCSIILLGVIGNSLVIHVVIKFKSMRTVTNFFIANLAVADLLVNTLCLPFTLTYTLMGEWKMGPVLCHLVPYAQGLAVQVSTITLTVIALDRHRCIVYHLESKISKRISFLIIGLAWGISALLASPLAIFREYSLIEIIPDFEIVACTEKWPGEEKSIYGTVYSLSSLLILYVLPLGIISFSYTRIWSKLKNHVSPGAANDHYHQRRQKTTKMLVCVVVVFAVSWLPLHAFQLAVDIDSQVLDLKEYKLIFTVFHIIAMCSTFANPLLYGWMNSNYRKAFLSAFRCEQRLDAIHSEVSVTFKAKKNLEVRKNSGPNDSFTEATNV

For “Neuropeptide Y receptor Y1 (from UniProt P25929)”, the equilibrium dissociation constant (Kd) in data set [1] was 4 nM. With “Neuropeptide Y receptor Y2 (from UniProt P49146)”, the Kd in data set [2] is 0.12 nM.
